According to US20160038571A1:

Legend:
calcineurin (CNA/B) = calcineurin (CNA/B) (UniProt Q08209); experiment: ITC
[1] = biological target: pre-formed RCAN1^128-164:calcineurin complex, Q08209; experiment: ITC, peptide titrated into the pre-formed RCAN1^128-164:calcineurin complex

“RCAN1^89-197 (from UniProt O35847 89-142)” showed a Kd (calcineurin (CNA/B)) of 10 nM.

“RCAN1 construct with the PxIxIT (SEQ ID NO: 9) motif deleted” was tested, and the fold decrease in binding affinity (calcineurin (CNA/B)) was 220 fold.

In the case of “RCAN1^128-192 (from UniProt P53805 183-247)”, the Kd (calcineurin (CNA/B)) is reported as 300 nM.

“RCAN1 mutant HLAPP (SEQ ID NO: 16) →AAAAA (SEQ ID NO: 17) (from UniProt P53805 56-252)” gave a fold decrease in Kd (against unmutated RCAN1) (calcineurin (CNA/B)) of 2.5 fold.

“RCAN1 mutant PSVVVH (SEQ ID NO: 13) →ASAVAA (SEQ ID NO: 18) (from UniProt P53805 56-252)” gave a fold decrease in Kd (against unmutated RCAN1) (calcineurin (CNA/B)) of 220 fold.

In the case of RPKPKIIQTRRPEYT (modifications not checked) [peptide consisting of RCAN1^178-192 that includes the TxxP (SEQ ID NO: 11) site], the Kd [1] is reported as 15000 nM.
